Target: T1, 人hCD2(His标签)蛋白 (human, UniProt P06729 25-209)
T1 construct: not shown: His tag
T1 sequence: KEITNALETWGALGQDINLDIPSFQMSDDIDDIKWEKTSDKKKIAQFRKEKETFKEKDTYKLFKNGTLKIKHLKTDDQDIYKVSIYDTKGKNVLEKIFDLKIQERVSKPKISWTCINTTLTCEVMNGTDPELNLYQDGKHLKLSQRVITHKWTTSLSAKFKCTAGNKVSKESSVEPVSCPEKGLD
Experiment: ELISA, plate coated with hCD2-His at 2 μg/mL

B1: 单克隆抗体8G1 (antibody, V domains shown)
VH: EVLLVESGGGLVKPGGSLKLSCAASGFTFSSYAMSWVRQTPEKRLEWVATITNGGSYNYYPDSVKGRFTISRDNAKNTLYLQMSSLRSEDTAIYYCARSNPYYFDYWGQGTTLTVSP
VL: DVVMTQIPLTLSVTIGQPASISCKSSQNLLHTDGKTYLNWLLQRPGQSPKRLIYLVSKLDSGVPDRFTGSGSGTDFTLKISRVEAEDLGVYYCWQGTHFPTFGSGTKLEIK
  binding result: no binding (tested: 0.1μg/mL 8G1)

Reference: patent publication CN115073591A (INST MILITARY MEDICINE ACADEMY MILITARY SCIENCES PLA, dated 2022)
